Data on 1 molecule can be found in US5654398, “Compositions and methods for inhibiting replication of human immunodeficiency virus-1” (The Regents of the University of California).

In the data set the target is Rev34-50 peptide I (free N- and C-termini) (HIV-1). Put plainly: EMSA; apparent nonspecific Kd with tRNA, 4 C. As to conditions: protein: synthetic; tags: synthetic peptide, unmodified termini; label: 32P; stem-loop with internal bulge. A general note: In EMSA bound probe runs differently from free probe, usually more slowly.

Consider GGCUGGUAUCGGCGCAGCGUCAAUGACGCUGACGGUAGAGGCCAGCC (ssRNA, [10,38]) [RRE IIB C46-G74 mutant], for which the Kd was 3 µM.
